According to patent US20170015708A1 (BIOKINE THERAPEUTICS, published 2017):

T1: RANTES (human) (human, UniProt P13501 24-91)
T1 sequence (looked up): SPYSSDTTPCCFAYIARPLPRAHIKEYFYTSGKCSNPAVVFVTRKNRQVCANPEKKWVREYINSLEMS

T2: I-TAC (human) (human, UniProt O14625 22-94)
T2 sequence (looked up): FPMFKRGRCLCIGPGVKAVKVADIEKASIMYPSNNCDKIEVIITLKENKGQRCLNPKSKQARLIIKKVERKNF

T3: IP-10 (human) (human, UniProt P02778 22-98)
T3 sequence (looked up): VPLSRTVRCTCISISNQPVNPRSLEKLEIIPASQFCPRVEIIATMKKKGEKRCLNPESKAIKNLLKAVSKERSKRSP

T4: MIG (human) (human, UniProt Q07325 23-125)
T4 sequence (looked up): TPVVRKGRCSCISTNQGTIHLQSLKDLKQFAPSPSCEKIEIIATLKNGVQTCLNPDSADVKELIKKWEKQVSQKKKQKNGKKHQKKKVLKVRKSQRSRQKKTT


Columns and labels:
Experiment in all cases: cell-based or functional assay
[1] = molecular target: T1, RANTES (human)
[2] = molecular target: T2, I-TAC (human)
[3] = molecular target: T3, IP-10 (human)
[4] = molecular target: MCP-1 (human) (human, UniProt P13500 24-99)
MCP-1 (human), sequence (P13500 24-99 limits assumed): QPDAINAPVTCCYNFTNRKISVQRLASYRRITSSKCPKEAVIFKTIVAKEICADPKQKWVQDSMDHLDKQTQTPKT

[5] = molecular target: Eotaxin (human) (human, UniProt P51671 24-97)
[6] = molecular target: T4, MIG (human)

Inhibition of chemokine-dependent T cell adhesion to VCAM-1 (++ = 100% inhibition) [1] | Inhibition of chemokine-dependent T cell adhesion to VCAM-1 (++ = 100% inhibition) [2] | Inhibition of chemokine-dependent T cell adhesion to VCAM-1 (++ = 100% inhibition) [3] | Inhibition of chemokine-dependent T cell adhesion to VCAM-1 (++ = 100% inhibition) [4] | Inhibition of chemokine-dependent T cell adhesion to VCAM-1 (++ = 100% inhibition) [5] | Inhibition of chemokine-dependent T cell adhesion to VCAM-1 (++ = 100% inhibition) [6] | Binder
100 % inhibition | 100 % inhibition | 100 % inhibition | 100 % inhibition | 100 % inhibition |  | SIPSHSIHSAKA [BKT-P2 peptide]
100 % inhibition | 100 % inhibition |  | 100 % inhibition |  | 100 % inhibition | LDYPIPQTVLHH [BKT-P46 peptide]
